Source: patent US20260055205A1 (published 2026)

T1: cyCD3e-Fc (cynomolgus monkey, UniProt Q95LI5 22-117)
T1 sequence (looked up): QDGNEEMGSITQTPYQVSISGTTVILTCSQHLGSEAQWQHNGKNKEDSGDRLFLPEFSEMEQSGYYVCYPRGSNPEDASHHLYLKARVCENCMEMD


What was measured:
human PSMA [1] = target: T2, human PSMA (human, UniProt Q04609 44-750, limits assumed); test: binding kinetics, uTCE
T2 construct: also called huPSMA; hPSMA

human CD3 epsilon = target: T3, human CD3 epsilon (human, UniProt P07766 23-126, limits assumed); test: Octet, crude lysate
T3 construct: also called huCD3e
T3 sequence (P07766 23-126 limits assumed): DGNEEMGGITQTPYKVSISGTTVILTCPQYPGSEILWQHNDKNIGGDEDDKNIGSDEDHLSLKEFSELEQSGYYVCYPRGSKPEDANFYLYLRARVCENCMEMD
How it was run: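 Octet binding of the anti-CD3 paTCE molecules was measured to cynomolgus CD3e-Fc with purified material and to human CD3 epsilon with crude lysate. Every variant carried PSMA.262 except CD3.23, which carried PSMA.5.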

cyCD3e-Fc = target: T1, cyCD3e-Fc; test: Octet, purified
Method: (§1) Pool 2 consisted of paTCE molecules each containing PSMA.262 and one of 64 CD3.23 mutation combination variants. Stability and affinity of the individually expressed molecules in the form of crude lysate was evaluated by Octet. […] The binding of these anti-CD3 molecules (CD3.227, CD3.228, CD3.229 and CD3.230) to human and cynomolgus CD3 was measured by Octet and the Tm was measured by Differential Scanning Fluorimetry. All variants were paired with PSMA.262 except for CD3.23 which was paired with PSMA.5.

huCD3e-Fc = huCD3e-Fc (human, UniProt P07766 23-126); test: Octet, purified
Sequence of huCD3e-Fc (P07766 23-126): as the sequence (P07766 23-126 limits assumed) above
Method: as §1

human PSMA-Fc [2] = target: T4, human PSMA-Fc (human, UniProt Q04609 44-750); test: Octet, PSMA-Fc
T4 construct: also called Human PSMA-Fc fusion
T4 sequence (Q04609 44-750 limits assumed): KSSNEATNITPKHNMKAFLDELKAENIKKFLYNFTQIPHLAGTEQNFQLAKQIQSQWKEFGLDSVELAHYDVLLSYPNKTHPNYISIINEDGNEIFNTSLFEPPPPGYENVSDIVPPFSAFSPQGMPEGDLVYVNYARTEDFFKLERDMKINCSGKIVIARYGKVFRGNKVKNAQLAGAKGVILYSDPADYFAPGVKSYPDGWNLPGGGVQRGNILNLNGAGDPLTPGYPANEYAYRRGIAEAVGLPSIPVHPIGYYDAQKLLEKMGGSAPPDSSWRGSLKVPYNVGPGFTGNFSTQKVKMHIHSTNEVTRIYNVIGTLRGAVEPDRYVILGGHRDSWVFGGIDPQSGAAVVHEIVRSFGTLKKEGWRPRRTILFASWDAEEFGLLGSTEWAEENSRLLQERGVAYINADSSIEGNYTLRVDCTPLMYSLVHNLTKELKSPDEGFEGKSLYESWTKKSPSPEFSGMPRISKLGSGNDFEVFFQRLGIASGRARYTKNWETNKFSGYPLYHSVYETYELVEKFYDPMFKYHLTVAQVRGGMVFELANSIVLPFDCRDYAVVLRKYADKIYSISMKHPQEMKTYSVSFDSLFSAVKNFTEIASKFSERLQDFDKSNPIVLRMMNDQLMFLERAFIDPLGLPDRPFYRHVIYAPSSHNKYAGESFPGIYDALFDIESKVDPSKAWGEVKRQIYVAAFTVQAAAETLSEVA
Method: Binding affinity of select PSMA PTE variants was tested by Octet.

human PSMA-Fc [3] = target: T4, human PSMA-Fc; test: Octet
human PSMA [4] = target: T2, human PSMA; test: binding screen

T2 sequence (Q04609 44-750 limits assumed): as above

Row | Binder | Kd (human CD3 epsilon) | Kd (cyCD3e-Fc) | koff (cyCD3e-Fc) | kon (cyCD3e-Fc) | Kd (huCD3e-Fc) | koff (huCD3e-Fc) | kon (huCD3e-Fc) | Kd (human PSMA [4]) | also measured
1 | uTCE PSMA-VHH; P01G03R3, CD3.23 (bispecific antibody) LTGPATSGSETPGTEVQLVESGGGLVQAGGSLRLSCVVSGIAFSPYHMAWYRQAPGKQHEWVAVITTGGTTAYNETVEGRFSISRDNARSTVYLQMNSLKPEDTAVYYCNIYGLSLKWGQGTQVTVSSGGGGSGGGSELVVTQEPSLTVSPGGTVTLTCRSSNGAVTSSNYANWVQQKPGQAPRGLIGGTNKRAPGTPARFSGSLLGGKAALTLSGVQPEDEAVYYCALWYPNLWVFGGGTKLTVLGATPPETGAETESPGETTGGSAESEPPGEGEVQLLESGGGIVQPGGSLKLSCAASGFTFNTYAMNWVRQAPGKGLEWVARIRSKYNNYATYYADSVKDRFTISRDDSKNTVYLQMNNLKTEDTAVYYCVRHENFGNSYVSWFAHWGQGTLVTVSSGTAEAASASGEAGRSANHTPAG | – | – | – | – | – | – | – | – | Kd (human PSMA [1]): 55.7 nM; koff (human PSMA [1]): 0.000539 s⁻¹; kon (human PSMA [1]): 9670 M⁻¹ s⁻¹
2 | uTCE PSMA-VHH; CB01B02R3, CD3.23 (bispecific antibody, also called PSMA.3) LTGPATSGSETPGTQVQLVESGGGLVQAGDSLRLSCVTSGRTFDVYAMGWFRQAPGKERELVAAINWSGSNKFHADSVKGRFTISRDNAWKTLSLQMNSLKPEDTAVYFCAASTRLYGTTWYEFNDSDYWGQGTQVTVSSGGGGSGGGSELVVTQEPSLTVSPGGTVTLTCRSSNGAVTSSNYANWVQQKPGQAPRGLIGGTNKRAPGTPARFSGSLLGGKAALTLSGVQPEDEAVYYCALWYPNLWVFGGGTKLTVLGATPPETGAETESPGETTGGSAESEPPGEGEVQLLESGGGIVQPGGSLKLSCAASGFTFNTYAMNWVRQAPGKGLEWVARIRSKYNNYATYYADSVKDRFTISRDDSKNTVYLQMNNLKTEDTAVYYCVRHENFGNSYVSWFAHWGQGTLVTVSSGTAEAASASGEAGRSANHTPAG | – | – | – | – | – | – | – | – | Kd (human PSMA [1]): 1.15 nM; koff (human PSMA [1]): 0.000205 s⁻¹; kon (human PSMA [1]): 178000 M⁻¹ s⁻¹
3 | CD3.227 (bispecific antibody, V domains shown, paTCE with PSMA.262; also called AC3658) VH: EVQLVESGGGIVQPGGSLRLSCAASGFTFNTYAMNWVRQAPGKGLEWVGRIRTKRNNYATYYADSVKGRFTISRDDSKNTVYLQMNSLKTEDTAVYYCVRHENFGNSYVSWFAHWGQGTLVTVSS VL: ELVVTQEPSLTVSPGGTVTLTCRSSNGAVTSSNYANWVQQKPGQAPRGLIGGTNKRAPGTPARFSGSLLGGKAALTLSGVQPEDEAVYYCALWYPNLWVFGGGTKLTVL | 8.2 nM | 80 nM | 0.0253 s⁻¹ | 315000 M⁻¹ s⁻¹ | 57 nM | 0.0196 s⁻¹ | 342000 M⁻¹ s⁻¹ | – | –
4 | CD3.228 (bispecific antibody, V domains shown, paTCE with PSMA.262; also called AC3659) VH: EVQLVESGGGIVQPGGSLRLSCAASGFTFSTYAMNWVRQAPGKGLEWVGRIRTKRNNYATYYADSVKGRFTISRDDSKNTVYLQMNSLKTEDTAVYYCVRHENFGNSYVSWFAHWGQGTLVTVSS VL: ELVVTQEPSLTVSPGGTVTLTCRSSNGAVTSSNYANWVQQKPGQAPRGLIGGTNKRAPGTPARFSGSLLGGKAALTLSGVQPEDEAVYYCALWYPNLWVFGGGTKLTVL | 6.2 nM | 80 nM | 0.0266 s⁻¹ | 334000 M⁻¹ s⁻¹ | 69 nM | 0.0217 s⁻¹ | 317000 M⁻¹ s⁻¹ | – | –
5 | CD3.229 (bispecific antibody, V domains shown, paTCE with PSMA.262; also called AC3660) VH: EVQLVESGGGIVQPGGSLRLSCAASGFTFNTYAMNWVRQAPGKGLEWVGRIRTKTNNYATYYADSVKGRFTISRDDSKNTVYLQMNSLKTEDTAVYYCVRHENFGNSYVSWFAHWGQGTLVTVSS VL: ELVVTQEPSLTVSPGGTVTLTCRSSNGAVTSSNYANWVQQKPGQAPRGLIGGTNKRAPGTPARFSGSLLGGKAALTLSGVQPEDEAVYYCALWYPNLWVFGGGTKLTVL | 11.9 nM | 193 nM | 0.0611 s⁻¹ | 317000 M⁻¹ s⁻¹ | 162 nM | 0.052 s⁻¹ | 321000 M⁻¹ s⁻¹ | – | –
6 | uTCE PSMA-VHH; P01E02R3, CD3.23 (bispecific antibody) LTGPATSGSETPGTEVQLVESGGGLVQAGGSLKLSCVANGPTFSTYAMAWFRQAPGKEHEFVAAITGDGDTTNNADSVKGRFTISRDNAKNRVYLQLNSLKPEDTAAYYCAAGVHHTYTIPRLWLYWGQGTQVTVSSGGGGSGGGSELVVTQEPSLTVSPGGTVTLTCRSSNGAVTSSNYANWVQQKPGQAPRGLIGGTNKRAPGTPARFSGSLLGGKAALTLSGVQPEDEAVYYCALWYPNLWVFGGGTKLTVLGATPPETGAETESPGETTGGSAESEPPGEGEVQLLESGGGIVQPGGSLKLSCAASGFTFNTYAMNWVRQAPGKGLEWVARIRSKYNNYATYYADSVKDRFTISRDDSKNTVYLQMNNLKTEDTAVYYCVRHENFGNSYVSWFAHWGQGTLVTVSSGTAEAASASGEAGRSANHTPAG | – | – | – | – | – | – | – | – | Kd (human PSMA [1]): 0.6 nM; koff (human PSMA [1]): 0.000156 s⁻¹; kon (human PSMA [1]): 261000 M⁻¹ s⁻¹
7 | PSMA.6 (uTCE of AC2728) (bispecific antibody, V domains shown, TCE with CD3.23; also called VHH14) VH: EVQLVESGGGVVQPGRSLRLSCAASGRTFGIYVMGWVRQAPGKEREFVAAISWSGSNRLVSDSVKGRFTISRDNSKNTLYLQMNSLRAEDTAVYFCAASNRLYGRTWYDFNESDYWGQGTTVTVSS | – | – | – | – | – | – | – | – | Kd (human PSMA-Fc [2]): 2.3 nM; koff (human PSMA-Fc [2]): 0.000235 s⁻¹; kon (human PSMA-Fc [2]): 96300 M⁻¹ s⁻¹; Kd (human PSMA-Fc [3]): 2.3 nM; koff (human PSMA-Fc [3]): 0.00024 s⁻¹; kon (human PSMA-Fc [3]): 96000 M⁻¹ s⁻¹
8 | AC2717 (PSMA.5 with CD3.23) (bispecific antibody, V domains shown, Domains of one TCE chain; also called VHH3) VHH: QVQLVESGGGVVQPGRSLRLSCAASGRTFGIYVMGWVRQAPGKEREFVAAISWSGSNRLVSDSVKGRFTISRDNSKNTLYLQMNSLRAEDTAVYYCAASNRLYGRTWYDFNESDYWGQGTQVTVSS VL: ELVVTQEPSLTVSPGGTVTLTCRSSNGAVTSSNYANWVQQKPGQAPRGLIGGTNKRAPGTPARFSGSLLGGKAALTLSGVQPEDEAVYYCALWYPNLWVFGGGTKLTVL VH: EVQLLESGGGIVQPGGSLKLSCAASGFTFNTYAMNWVRQAPGKGLEWVARIRSKYNNYATYYADSVKDRFTISRDDSKNTVYLQMNNLKTEDTAVYYCVRHENFGNSYVSWFAHWGQGTLVTVSS | 12.9 nM | 130 nM | 0.0312 s⁻¹ | 240000 M⁻¹ s⁻¹ | 131 nM | 0.0289 s⁻¹ | 220000 M⁻¹ s⁻¹ | 4.8 nM | –
9 | PSMA.291 (bispecific antibody, V domains shown, TCE with CD3.23; also called AC3500) VH: QVQLVESGGGVVQPGRSLRLSCAASGRTFGIYVMGWFRQAPGKEREFVAAMSWSGSNRKVSDSVKGRFTISRDNSKNTLYLQMNSLRAEDTAVYYCAASNRLYGRTWYDFNESDYWGQGTQVTVSS | – | – | – | – | – | – | – | 2.6 nM | –

Now from value to binder, other results behind:

Row | Kd (human CD3 epsilon) | Kd (cyCD3e-Fc) | koff (cyCD3e-Fc) | kon (cyCD3e-Fc) | Kd (huCD3e-Fc) | koff (huCD3e-Fc) | kon (huCD3e-Fc) | Kd (human PSMA [4]) | Binder | also measured
10 | 17 nM | 216 nM | 0.0726 s⁻¹ | 336000 M⁻¹ s⁻¹ | 195 nM | 0.0633 s⁻¹ | 325000 M⁻¹ s⁻¹ | – | CD3.230 (bispecific antibody, V domains shown, paTCE with PSMA.262; also called AC3661) VH: EVQLVESGGGIVQPGGSLRLSCAASGFTFSTYAMNWVRQAPGKGLEWVGRIRTKTNNYATYYADSVKGRFTISRDDSKNTVYLQMNSLKTEDTAVYYCVRHENFGNSYVSWFAHWGQGTLVTVSS VL: ELVVTQEPSLTVSPGGTVTLTCRSSNGAVTSSNYANWVQQKPGQAPRGLIGGTNKRAPGTPARFSGSLLGGKAALTLSGVQPEDEAVYYCALWYPNLWVFGGGTKLTVL | –
11 | – | – | – | – | – | – | – | 2.3 nM | PSMA.287 (bispecific antibody, V domains shown, TCE with CD3.23; also called AC3496) VH: QVQLVESGGGVVQPGRSLRLSCAASGRTFGIYVMGWFRQAPGKEREFVGAISWSGSNRKVSDSVKGRFTISRDNSKNTLYLQMNSLRAEDTAVYYCAASNRLYGRTWYDFNESDYWGQGTQVTVSS | –
12 | – | – | – | – | – | – | – | 5.5 nM | PSMA.290 (bispecific antibody, V domains shown, TCE with CD3.23; also called AC3499) VH: QVQLVESGGGVVQPGRSLRLSCAASGRTFGIYVWGWVRQAPGKEREFVAAMSWSGSNRKVSDSVKGRFTISRDNSKNTLYLQMNSLRAEDTAVYYCAASNRLYGRTWYDFNESDYWGQGTQVTVSS | –
13 | – | – | – | – | – | – | – | 6 nM | PSMA.288 (bispecific antibody, V domains shown, TCE with CD3.23; also called AC3497) VH: QVQLVESGGGVVQPGRSLRLSCAASGRTFGIYAMGWVRQAPGKEREFVAAMSWSGSNRKVSDSVKGRFTISRDNSKNTLYLQMNSLRAEDTAVYYCAASNRLYGRTWYDFNESDYWGQGTQVTVSS | –
14 | – | – | – | – | – | – | – | 6.2 nM | PSMA.289 (bispecific antibody, V domains shown, TCE with CD3.23; also called AC3498) VH: QVQLVESGGGVVQPGRSLRLSCAASGRTFGIYVFGWVRQAPGKEREFVAAMSWSGSNRKVSDSVKGRFTISRDNSKNTLYLQMNSLRAEDTAVYYCAASNRLYGRTWYDFNESDYWGQGTQVTVSS | –
15 | 13.5 nM | – | – | – | – | – | – | 2.7 nM | AC3471 (PSMA.262 with CD3.23) (bispecific antibody, V domains shown, Domains of one TCE chain; also called CD3.23 WT) VHH: QVQLVESGGGVVQPGRSLRLSCAASGRTFGIYVWGWVRQAPGKEREFVGAISWSGSNRKVSDSVKGRFTISRDNSKNTLYLQMNSLRAEDTAVYYCAASNKLYGRTWYDFNESDYWGQGTQVTVSS VL: ELVVTQEPSLTVSPGGTVTLTCRSSNGAVTSSNYANWVQQKPGQAPRGLIGGTNKRAPGTPARFSGSLLGGKAALTLSGVQPEDEAVYYCALWYPNLWVFGGGTKLTVL VH: EVQLLESGGGIVQPGGSLKLSCAASGFTFNTYAMNWVRQAPGKGLEWVARIRSKYNNYATYYADSVKDRFTISRDDSKNTVYLQMNNLKTEDTAVYYCVRHENFGNSYVSWFAHWGQGTLVTVSS | –
